Tests used:
[1] = target: recombinant human NGF 1-120 (human) (UniProt P01138); assay: cell-based or functional assay
[2] = target: recombinant rat beta-NGF (R&D Systems) (rat) (UniProt P25427); assay: cell-based or functional assay
Sequence of recombinant rat beta-NGF (R&D Systems) (rat) (P25427 122-241 limits assumed): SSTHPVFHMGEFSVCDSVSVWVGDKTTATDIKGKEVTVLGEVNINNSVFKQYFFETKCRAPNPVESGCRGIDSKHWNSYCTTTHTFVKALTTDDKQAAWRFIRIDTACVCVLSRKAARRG

Sequence of recombinant human NGF 1-120 (human) (P01138 other isoform, or with tags, fused parts or gaps): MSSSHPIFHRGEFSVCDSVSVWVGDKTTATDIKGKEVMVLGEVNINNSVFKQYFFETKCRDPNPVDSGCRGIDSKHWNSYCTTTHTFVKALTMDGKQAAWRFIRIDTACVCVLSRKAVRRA

| IC50 @ hNGF, NGF neutralization activity as in Example 3 [1] [nM] | IC50 @ rNGF, NGF neutralization activity as in Example 3 [2] [nM] | Binder |
| --- | --- | --- |
| 0.28 | > 20 | anti-NGF antibody 14D11 (antibody, V domains shown) VH: EVQLVQSGAEVKKPGESLKISCKGSGYNFTTYWIGWVRQMPGKGLEWMGIIYPGDSDTKYSPSFQGQVTISADKSISTAYLQWSSLKASDTAMYYCARNYYGSGTYYYYYGMNVWGQGTTVTVSS VL: DIQMTQSPSSVSASVGDRVTITCRASQGISIWLAWYQHKPGKAPKLLIYAASSLQSGVPSRFSGSGSGTDFTLTISSLQPEDFATYYCQQANSFPWTFGQGTKVEIK |
| 0.392 | > 13 | anti-NGF antibody 14D10 (antibody, V domains shown) VH: EVQLVESGGGLVQPGRSLRLSCTASGFTFEDYAMHWVRQAPGKGLEWVSGISWNRGIIGYADSVKGRFTVSRDNAKNSLYLQMNSLRAEDTALYYCAKEGYYGSGRPGYFYYVMDVWGQGTTVTVSS VL: EIVLTQSPGTLSLSPGERATLSCRASQSVSSGFLAWFQQKPGQAPRLLIYGASSRATAIPDRFSGSGSGTDFTLTISRLEPEDFAVYYCQQYGSSPYTFGQGTKLEIK |

Source: patent publication US20160237147A1
